These results are taken from article PMC9491731 (PLoS Genetics, 2022).

The experiment deals with T1, WT CcdB (Controller of Cell Death protein B) (Escherichia coli (F-plasmid), UniProt P62554).
T1 construct: also called CcdB-WT
In words: thermal shift assay (Sypro orange). As to conditions: both partners purified.

B1: CcdA peptide (45–72) (peptide)
peptide: KAENQEGMAEVARFIEMNGSFADENRDW
Consider B1, for which the binding result is reported as “binds”.
